Earlier results, collected in patent US20210244796A1, “COMPOSITIONS IN THE FORM OF AN INJECTABLE AQUEOUS SOLUTION COMPRISING AMYLIN AN AMYLIN RECEPTOR AGONIST OR AN AMYLIN ANALOG, AT LEAST ONE IONIC SPECIES AND AN AMPHOIPHILIC COMPOUNDS CONTAINING HYDRIPHOBIC RADICALS” (ADOCIA, priority 2018, published 2021).
Read-outs that look alike come from different tables or passages of the source.

Row | Molecule | pH of the solution above which the peptide is described as shining (pramlintide formulated at acidic pH) | Time for which amylin is stable (acidic pH) | Time for which amylin is stable (neutral pH)
1 | CC[C@H](C)[C@H](NC(=O)[C@@H]1CCCN1C(=O)CNC(=O)[C@H](Cc1ccccc1)NC(=O)[C@H](CC(N)=O)NC(=O)[C@H](CC(N)=O)NC(=O)[C@H](CO)NC(=O)[C@H](CO)NC(=O)[C@H](Cc1c[nH]cn1)NC(=O)[C@@H](NC(=O)[C@H](CC(C)C)NC(=O)[C@H](Cc1ccccc1)NC(=O)[C@H](CC(N)=O)NC(=O)[C@H](C)NC(=O)[C@H](CC(C)C)NC(=O)[C@H](CCCNC(=N)N)NC(=O)[C@H](CCC(N)=O)NC(=O)[C@@H](NC(=O)[C@H](C)NC(=O)[C@@H]1CSSC[C@H](NC(=O)[C@@H](N)CCCCN)C(=O)N[C@@H](CC(N)=O)C(=O)N[C@@H]([C@@H](C)O)C(=O)N[C@@H](C)C(=O)N[C@@H]([C@@H](C)O)C(=O)N1)[C@@H](C)O)C(C)C)C(=O)N[C@@H](CC(C)C)C(=O)N1CCC[C@H]1C(=O)N1CCC[C@H]1C(=O)N[C@H](C(=O)N[C@@H](CC(N)=O)C(=O)N[C@H](C(=O)NCC(=O)N[C@@H](CO)C(=O)N[C@@H](CC(N)=O)C(=O)N[C@H](C(=O)N[C@@H](Cc1ccc(O)cc1)C(N)=O)[C@@H](C)O)C(C)C)[C@@H](C)O [pramlintide, reference compound] | greater than 5.5 | – | –
2 | Amylin: 37 amino acid peptide co-stored and co-secreted with insulin (KCNTATCATQRLANFLVHSSNNFGAILSSTNVGSNTY; Islet amyloid polypeptide; UniProt P10997 34-70, looked up) | – | about fifteen | less than one
